Data as given in publication PMC3579926.
Several values for one entry are separate records, joined by “and”; a condition that tells them apart may be missing. Equal values may be shown once.

What was measured:
Experiment in all cases: SEC; Superdex 200 (10/300), 4°C, protein at 1 mg/mL, 20 mM HEPES-NaOH pH 7.5, 1.0 M NaCl, 20 µM ZnCl2, 5 mM β-mercaptoethanol; dimer, and dimer to tetramer
[1] = biological target: RSV IN(1–270) (Rous sarcoma virus (Prague A strain))
[2] = biological target: RSV IN(1–270)•C23S (Rous sarcoma virus (Prague A strain))
[3] = biological target: RSV IN(49–270) (Rous sarcoma virus (Prague A strain))

Substance: RSV IN(1–270) (domain or fragment)
- stoichiometry N [1]: 2 and 4

Substance: RSV IN(1–270)•C23S (domain or fragment)
- stoichiometry N [2]: 2

Substance: RSV IN(49–270) (domain or fragment)
- stoichiometry N [3]: 2
